According to article doi:10.1101/116178:

Target: RFP-p62 (UniProt Q13501)
Assay: co-IP

fold binding against cleavable mHTT: 2 fold
Substance: mHTT aa1-1212 138Q-C6R (domain or fragment)
